The target in experiment [1] is Her2 (ErbB2) (UniProt P04626). The experiment is described as follows: ligand binding assay ('Binding Activity'), format not described; lyophilized formula B2 after 25 C for 3 months.
The target in experiment [2] is Her2 (ErbB2) (UniProt P04626). Nature of the experiment: ligand binding assay ('Binding Activity'), format not described; lyophilized formula B6 after 37 C for 1 month.
For experiment [3], the target named is Her2 (ErbB2) (UniProt P04626). Nature of the experiment: ligand binding assay ('Binding Activity'), format not described; lyophilized formula B4 after 37 C for 1 month.
Experiment [4] has as its target Her2 (ErbB2) (UniProt P04626). The experiment is described as follows: ligand binding assay ('Binding Activity'), format not described; lyophilized formula B4 after 25 C for 3 months.
Experiment [5] has as its target Her2 (ErbB2) (UniProt P04626). The experiment is described as follows: ligand binding assay ('Binding Activity'), format not described; lyophilized formula B6 after 4 C for 6 months.
The target in experiment [6] is Her2 (ErbB2) (UniProt P04626). The experiment is described as follows: ligand binding assay ('Binding Activity'), format not described; lyophilized formula B6 after 25 C for 3 months.
Experiment [7] addresses Her2 (ErbB2) (UniProt P04626). The experiment is described as follows: ligand binding assay ('Binding Activity'), format not described; lyophilized formula B4 after 4 C for 6 months.
For experiment [8], the target named is Her2 (ErbB2) (UniProt P04626). The experiment is described as follows: ligand binding assay ('Binding Activity'), format not described; lyophilized formula B2 after 37 C for 1 month.
Experiment [9] deals with Her2 (ErbB2) (UniProt P04626). The experiment is described as follows: ligand binding assay ('Binding Activity'), format not described; lyophilized formula B2 after 4 C for 6 months.

B1: recombinant humanized anti-Her2 monoclonal antibody-MMAE conjugate (RC48-vc-MMAE) (antibody, INN chains, looked up, V domains shown, not shown: a dimerising Fc or GST)
VH: EVQLVQSGAEVKKPGATVKISCKVSGYTFTDYYIHWVQQAPGKGLEWMGRVNPDHGDSYYNQKFKDKATITADKSTDTAYMELSSLRSEDTAVYFCARNYLFDHWGQGTLVTVSS
VL: DIQMTQSPSSVSASVGDRVTITCKASQDVGTAVAWYQQKPGKAPKLLIYWASIRHTGVPSRFSGSGSGTDFTLTISSLQPEDFATYYCHQFATYTFGGGTKVEIK
modifications: vedotin: mc-vc-PAB-MMAE payload
B1: the IC50 is 13.3 pM in the experiment with Her2 (ErbB2) [1]; 14.8 pM with Her2 (ErbB2) [2]; 12.6 pM with Her2 (ErbB2) [3]; 12.7 pM in the experiment with Her2 (ErbB2) [4]; 13.3 pM with Her2 (ErbB2) [5]; 12.9 pM with Her2 (ErbB2) [6]. The IC50 worked out at 12.2 pM in the experiment with Her2 (ErbB2) [7], 15.2 pM with Her2 (ErbB2) [8] and 13.2 pM with Her2 (ErbB2) [9].

Usually IC50 stands for the concentration at which inhibition is half-maximal.

Values taken from patent publication US20210154314A1.
